Target: FLAG-tagged 3D7 CLAG3 protein (3D7 CLAG3.1 with tandem miniSOG-FLAG tag, TFLC3 parasite) (Plasmodium falciparum (3D7 line)) (UniProt O77310)
Experiment: co-IP; TFLC3 trophozoite-infected cell lysate in 50 mM Tris-HCl pH 7.4, 150 mM NaCl, 5 mM EDTA, 1% Triton X-100; anti-FLAG agarose beads, at least 2 h at 4°C; immunoblot probed with anti-HA; eluate compared with serial dilutions of the input

Chain of UniProt O77310 (O77310 25-1417): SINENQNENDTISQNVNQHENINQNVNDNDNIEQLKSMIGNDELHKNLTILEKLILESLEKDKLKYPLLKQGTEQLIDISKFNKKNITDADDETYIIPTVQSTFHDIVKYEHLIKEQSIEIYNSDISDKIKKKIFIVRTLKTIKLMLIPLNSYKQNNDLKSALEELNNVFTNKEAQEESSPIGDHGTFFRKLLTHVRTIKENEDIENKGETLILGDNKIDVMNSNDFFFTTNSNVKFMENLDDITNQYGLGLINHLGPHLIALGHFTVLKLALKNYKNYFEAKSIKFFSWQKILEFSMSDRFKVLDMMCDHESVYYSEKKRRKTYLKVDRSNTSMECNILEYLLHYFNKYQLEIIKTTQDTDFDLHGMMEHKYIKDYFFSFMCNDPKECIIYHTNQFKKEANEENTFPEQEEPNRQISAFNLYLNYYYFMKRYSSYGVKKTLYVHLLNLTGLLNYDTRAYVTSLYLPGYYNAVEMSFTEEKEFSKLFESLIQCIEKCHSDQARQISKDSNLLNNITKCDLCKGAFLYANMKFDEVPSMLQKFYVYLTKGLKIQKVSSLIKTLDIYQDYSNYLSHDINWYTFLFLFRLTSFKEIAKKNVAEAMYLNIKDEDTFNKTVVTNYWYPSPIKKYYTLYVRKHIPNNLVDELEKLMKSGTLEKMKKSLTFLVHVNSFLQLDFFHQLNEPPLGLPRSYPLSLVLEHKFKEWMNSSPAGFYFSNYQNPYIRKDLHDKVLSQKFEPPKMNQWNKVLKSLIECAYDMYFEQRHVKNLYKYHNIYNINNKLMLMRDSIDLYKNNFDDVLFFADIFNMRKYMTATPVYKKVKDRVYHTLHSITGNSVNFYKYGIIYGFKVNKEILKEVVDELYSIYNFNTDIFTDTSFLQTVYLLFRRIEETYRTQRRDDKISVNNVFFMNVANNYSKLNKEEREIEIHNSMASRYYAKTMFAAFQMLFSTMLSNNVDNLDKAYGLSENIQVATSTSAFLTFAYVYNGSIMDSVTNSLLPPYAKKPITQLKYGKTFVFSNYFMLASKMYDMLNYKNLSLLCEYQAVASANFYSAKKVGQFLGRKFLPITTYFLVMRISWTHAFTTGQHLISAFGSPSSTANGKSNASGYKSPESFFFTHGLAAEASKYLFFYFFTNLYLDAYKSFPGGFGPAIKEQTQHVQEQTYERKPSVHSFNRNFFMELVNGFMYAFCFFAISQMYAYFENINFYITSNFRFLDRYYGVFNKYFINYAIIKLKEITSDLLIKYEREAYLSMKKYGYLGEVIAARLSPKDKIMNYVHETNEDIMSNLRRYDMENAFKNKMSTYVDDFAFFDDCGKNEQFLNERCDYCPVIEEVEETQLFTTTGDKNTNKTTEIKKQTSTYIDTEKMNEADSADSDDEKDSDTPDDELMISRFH

For “HA-tagged Dd2 CLAG3 protein (TFLC3 parasite) (natural protein)”, the percent of the HA-tagged isoform coprecipitated on anti-FLAG beads was 1 to 10%.
